Data as given in PMC3956856, “Interaction of Kinase-Interaction-Motif Protein Tyrosine Phosphatases with the Mitogen-Activated Protein Kinase ERK2” (PLoS ONE, 2014).
“Also recorded” adds a separate entry of the source.

T1: STEPKIM peptide (STEP residues 213-229) (mouse, UniProt P54830 213-229)
T1 construct: STEP (PTPN5, striatal enriched protein tyrosine phosphatase), residues 213-229 (KIM); mouse is stated for the STEP 213-539 construct; source: synthetic peptide (Biosynthesis, Inc.), HPLC purified, >98% purity
T1 peptide (looked up): MGLQERRGSNVSLTLDM

T2: STEP KIMKIS peptide (STEP residues 213-256) (mouse, UniProt P54830 213-256)
T2 construct: STEP (PTPN5), residues 213-256 (KIM and KIS); mouse is stated for the STEP 213-539 construct; source: synthetic peptide (Biosynthesis, Inc.), HPLC purified, >98% purity
T2 peptide (looked up): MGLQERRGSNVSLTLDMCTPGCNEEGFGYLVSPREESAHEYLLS

T3: PTPSL KIMKIS (PTPSL residues 332-373) (human, UniProt Q15256 332-373)
T3 construct: PTPSL/PTPBR7 (PTPRR), residues 332-373 (KIM and KIS); human is stated for the PTPSL 332-655 construct; Recombinant, not synthetic; source: final SEC
T3 chain (looked up): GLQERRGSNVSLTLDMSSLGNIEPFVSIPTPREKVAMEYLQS

B1: extracellular signal-regulated kinase 2 (ERK2), unphosphorylated (enzyme, UniProt P63086 1-358, looked up)
chain: MAAAAAAGPEMVRGQVFDVGPRYTNLSYIGEGAYGMVCSAYDNLNKVRVAIKKISPFEHQTYCQRTLREIKILLRFRHENIIGINDIIRAPTIEQMKDVYIVQDLMETDLYKLLKTQHLSNDHICYFLYQILRGLKYIHSANVLHRDLKPSNLLLNTTCDLKICDFGLARVADPDHDHTGFLTEYVATRWYRAPEIMLNSKGYTKSIDIWSVGCILAEMLSNRPIFPGKHYLDQLNHILGILGSPSQEDLNCIINLKARNYLLSLPHKNKVPWNRLFPNADSKALDLLDKMLTFNPHKRIEVEQALAHPYLEQYYDPSDEPIAEAPFKFDMELDDLPKEKLKELIFEETARFQPGYRS
notes: ERK2 (extracellular signal-regulated kinase 2), unphosphorylated; also called MAPK; source: final SEC (Superdex 75 26/60)

Key:
[1] = molecular target: T4, ERK2 (Rattus norvegicus, UniProt P63086); experiment: Isothermal titration calorimetry with ERK2; assay type: binding
T4 construct: gene Mapk1; made in house
Experimental: The PTPSLKIM peptide (residues 331–348), STEPKIM (residues 213–229) and STEPKIMKIS (residues 213–256) were synthesized, HPLC purified and verified by mass spectrometry (MS) (>98% purity; Biosynthesis, Inc.). Expression and purification of ERK2 and PTPSLKIMKIS (residues 332–373) was carried out as previously described, [15]. PTPSL (residues 332–655, human), STEP (residues 213–539, mouse) and PSChimera (PTPSL residues 332–373 with STEP residues 257–539; gene synthesized by DNA 2.0) were expressed and purified using the protocol previously described in detail for STEPCAT (residues 244–539). The DUSP16 MAPK binding domain (residues 5–138, human) was expressed and purified as previously described. All purified proteins were stored at −80 °C until use at which point they were thawed and exchanged into the appropriate buffer using size exclusion chromatography (SEC; Superdex 75 26/60; GE Healthcare). The final protein buffer was dependent on the experiment performed. For ITC experiments, the final SEC purification was performed in ITC buffer (10 mM Tris pH 7.5, 150 mM NaCl, 0.1 mM EDTA, 0.5 mM TCEP); for SAXS experiments, the final SEC purification was performed in SAXS buffer (50 mM HEPES pH 6.8, 150 mM NaCl, 5 mM dithiothreitol). PTPSLKIM, STEPKIM and STEPKIMKIS peptides were solubilized in ITC buffer prior to ITC measurements.
ITC experiments were performed at 25 °C using a VP-ITC microcalorimeter (Microcal Inc.). Titrant (10 μL per injection) was injected into the sample cell over a period of 20 seconds with a 250 second interval between titrations to allow for complete equilibration and baseline recovery. 28 injections were delivered during each experiment and the solution in the sample cell was stirred at 307 rpm to ensure rapid mixing. To determine the thermodynamic parameters (ΔH, ΔS, ΔG) and binding constants (K) of the ERK2:PTPSLKIM, ERK2:PTPSL, ERK2:STEP and ERK2:PSChimera interactions, PTPSLKIM, PTPSL, STEP and PSChimera were titrated into ERK2. To determine the same parameters for the ERK2:STEPKIM, ERK2:PTPSLKIMKIS and ERK2:STEPKIMKIS interaction, ERK2 was titrated into the peptides. Titrants were chosen based on the amount of purified protein/peptide available for the experiment. For all titrations the concentrations were slightly varied to ensure independence of the Kd from the protein/peptide concentrations. Data were analyzed with a one-site binding model assuming a binding stoichiometry of 1∶1 using Origin 7.0 software. A nonlinear least-squares algorithm and the titrant and sample cell concentrations were used to fit the heat flow per injection to an equilibrium binding equation, providing values of the stoichiometry (n), change in enthalpy (ΔH) and binding constant (K). All data were repeated in triplicate.

[2] = molecular target: p38α; conditions: values previously published, ref [14], [15], [17], [18]; cited from earlier work
Text: We used ITC measurements to determine the binding affinity of STEP and PTPSL for unphosphorylated ERK2 ( Table 1; Figure S1). […] This complex has a ∼3-times lower Kd (tighter binding) than the next tightest complex, ERK2:PTPSL, and a nearly 70-fold greater affinity than the weakest complex, p38α:HePTP [15]. Like STEP, PTPSL binds ERK2 more tightly (∼3.5-fold) than p38α. We also tested peptides that include the kinase specificity s ... || We also generated a chimeric protein in which we fused the PTPSLKIMKIS to STEPCAT (PSchimera; Figure 1A ). […] Thus, they only adopt a single conformation when they bind their respective MAPKs. This is different from the MAPK-binding domains (MKBD) of MAPK phosphatases (MKP; dual specificity phosphatases; DUSPs), [26]. In MKPs, the KIM sequence is part of a stable, folded domain and thus adopts a single, ordered conformation in both the unbound and MAPK-bound states, [28]. […] Our ... || (+ 1 further places)

[3] = molecular target: T4, ERK2; experiment: SAXS of resting-state complexes with ERK2; conditions: ERK2:PTPSL complex; 50 mM HEPES pH 6.8, 150 mM NaCl, 5 mM dithiothreitol
[4] = molecular target: T4, ERK2; conditions: structural model from cross-linking, MS and molecular modeling; ref [24]; cited from earlier work
Text: In this model, PTPSLCAT binds ERK2 in an orientation in which the catalytic site is positioned near the ERK2 phosphorylation loop. This is different from the p38 ... || Figure 3 Regulatory protein-MAPK interaction strengths. The binding strengths of each KIM-PTP (KIM peptides and KIM-containing MKBDs (in orange font), light blue; KIMKIS peptides, light purple; proteins, light pink) to p38α and ERK2 represented from weakest to tightest (largest Kd to smallest Kd) binding affinity; ‘^†’ indicates values previously published, [15], [17], [18]. KIM-PTP:MAPK complexes determined to be extended using SAXS written in normal text; KIM-PTP:MAPK complexes determined to be compact written in italics; *, compact nature of the ERK2-PTPSL complex determined by ...

[5] = molecular target: B1; experiment: ITC; PTPSLKIM, PTPSL, STEP or PSChimera titrated into ERK2 in the cell; 25 °C; 10 mM Tris pH 7.5, 150 mM NaCl, 0.1 mM EDTA, 0.5 mM TCEP; one-site model; triplicate; conditions: both partners purified
[6] = molecular target: T1, STEPKIM peptide (STEP residues 213-229); experiment: ITC; ERK2 titrated into STEPKIM, PTPSL KIMKIS or STEP KIMKIS in the cell; 25 °C; 10 mM Tris pH 7.5, 150 mM NaCl, 0.1 mM EDTA, 0.5 mM TCEP; one-site model; triplicate; conditions: both partners purified
[7] = molecular target: T2, STEP KIMKIS peptide (STEP residues …); experiment: as above; conditions: both partners purified
[8] = molecular target: T3, PTPSL KIMKIS (PTPSL residues 332-373); experiment: as above; conditions: both partners purified

Row | relative binding to ERK2 (in words) ([1]; ERK2, ITC) | tighter binding to ERK2 than the PTPSLKIM peptide ([1]; ERK2, ITC, versus PTPSLKIM) | tighter binding to ERK2 than to p38α (fold difference in affinity) ([1]; ITC Kd, ERK2 versus p38α) | TΔS ([1]; unphosphorylated ERK2, ITC, 25 °C, 10 mM Tris pH 7.5, 150 mM NaCl, 0.1 mM EDTA, 0.5 mM TCEP, average and standard deviation, triplicate) | Kd [5] | dH [5] | dH [6] | dH [7] | dH [8] | Molecule | affinity for ERK2 compared with p38α (in words) ([1]; ITC, ERK2 versus p38α) | Kd [2] | aggregation of the ERK2:PTPSL complex in SAXS samples [3] | shape of the ERK2:PTPSL resting-state complex (in words) [4]
1 | more strongly than does HePTP | ~4 times | ~3.5 fold | -12.8 ± 2.1 kcal/mol | 108 nM | -22.3 kcal/mol | – | – | – | PTPSL (residues 332-655, human) (domain or fragment, UniProt Q15256 332-655, looked up, PTPSL/PTPBR7 (PTPRR, PTP STEP-like), human, residues 332-655 (KIM, KIS and catalytic domain); The results loosely call this construct 'full-length PTPSL'; the construct is residues 332-655; also called PTPBR7; PTPRR; source: final SEC) GLQERRGSNVSLTLDMSSLGNIEPFVSIPTPREKVAMEYLQSASRILTRSQLRDVVASSHLLQSEFMEIPMNFVDPKEIDIPRHGTKNRYKTILPNPLSRVCLRPKNVTDSLSTYINANYIRGYSGKEKAFIATQGPMINTVDDFWQMVWQEDSPVIVMITKLKEKNEKCVLYWPEKRGIYGKVEVLVISVNECDNYTIRNLVLKQGSHTQHVKHYWYTSWPDHKTPDSAQPLLQLMLDVEEDRLASQGRGPVVVHCSAGIGRTGCFIATSIGCQQLKEEGVVDALSIVCQLRMDRGGMVQTSEQYEFVHHALCLYESRLSAET | higher binding affinity for ERK2 than for p38α; also recorded: bind more strongly to ERK2 | 382 ± 65 nM | persistently exhibited the typical hallmarks of aggregation | compact, with ERK2 and PTPSL associating in a side-by-side manner
2 | – | – | – | – | – | – | -27.9 kcal/mol | -29.2 kcal/mol | -21.6 kcal/mol | B1 | – | – | – | –
